B1: R1a-B6 monovalent (VHH)
VHH: QVQLVESGGGLVQPGGSLRLSCAASGSFFSRYRMGWYRQAPGEQRELVASIAYDGSTSYADPVKGRFTISRDNANTVHLQMYSLKPDDTAVYYCNLDPPGILYWGQGTQVTVSS
notes: source: E. coli WK6, periplasmic extract, purified (Talon IMAC, Superdex 75 SEC)
B2: R1a-A5 monovalent (VHH)
VHH: QVQLVESGGGLVQPGGSLRLSCSASGSAVLFSTYPMSWYRQAPGKQRELVAAVTTDGSTSYADYAKGRFTISRDNAKNTVYLQMNSLKPEDTAVYYCNARDGFFNRYDYWGQGTQVTVSS
notes: as for B1

Target: recombinant H5-HA, A/Vietnam/1203/2004 (H5N1) (Influenza A virus A/Vietnam/1203/2004 …, UniProt Q5EP31, strain)
Assay: SPR
Details: both partners purified

Binder	Kd
B1	0.51 nM
B2	0.27 nM

— paper PMC4118869 (PLoS ONE, 2014)
